Data on 41 sequences can be found in the nanobody polyreactivity screen of Harvey et al. (2022).

The series can be described thus: yeast display, Sf9 membrane polyspecificity reagent, FACS + sequencing; frameworks hold sequencing errors. Summed up:
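Using colony PCR, genes from sorted yeast display clones were amplified, then sequenced on MiSeq at 2 × 250 and filtered by CDR length. The clones had been stained with 10% biotinylated, detergent-solubilized Sf9 membrane reagent for 1 hour at 4 °C and sorted by FACS into low and high (top ~1%) gates on anti-HA and streptavidin fluorescence. Polyreactivity labels come from the gate of origin.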
For the sequence “QVQLVESGGGLVQAGGSLRLSCAASGGTFIVYAMGWYRQAPGKERELVAAITYSGGSTYYADSVKGRFTISRDNAKNTVYLQMNSLKPEVTAVYYCAARPFVSSWLQYAEGGDYWGQGTQVTVSS”, the “polyreactivity (PSR sort gate)” value is “low polyreactivity”. The result for “QVQLVESGGGLVQAGGSLRLSCAASGGTFKPNVMGWYRQAPGKERELVAAITSGGSTYYADSVKGRFTMSRDNAKNTVYLQMNSLKPEDTAVYYCAATSLRRYGYNYWGQGTQVTVSS” reads “high polyreactivity”; that for “QVQLVESGGGLVQAGGSLRLSCAASGGTFLAYAMGWSRQAPGKEREFVAGISNDGDTNYADSVKGRFTISRDNAKNTVYLQMNSLKPEDTAVYYCAALYRGYAVAASYYHWGQGTQVTVSS”, “high polyreactivity”. With “QVQLVESGGGLVQAGGSLRLSCAASGGTFNHYAMGWYRQAPGKERELVASITNGASTYYADSVKGRFTISRDNAKNTVYLQMNSLKPEDTAVYYCAKRGRVGKYRYEYWGQGTQVTVSS” the entry was “low polyreactivity”; with “QVQLVESGGGLVQAGGSLRLSCAASGGTFPLYAMGWYRQAPGKERELVAAIRWSGGRTYYADSVKGRFTISRDNAKNTVYLQMNSLKPEDTAVYYCAADYDDGWGYDYWGQGTQVTVSS”, “high polyreactivity”; with “QVQLVESGGGLVQAGGSLRLSCAASGGTFPQNLMGWYRQAPGQERELVAAISSGGSTYYADSGKGRFTISRDNAKNSVYLQMNSLKPEDTAVYYCAKRRWYRYDYWGQGTQVTVSS”, “high polyreactivity”.

With “QVQLVESGGGLVQAGGSLRLSCAASGGTFPWYTKGWYRQAPGKERELVATIRGRDGSTFYADSVKGRFTISRDNAKNTVYLQMNSLKPEDTAVYYCAAVGRRKDLRWGVYYRFDYWGQGTQVTVSS”, the “polyreactivity (PSR sort gate)” value was “low polyreactivity”.

Take “QVQLVESGGGLVQAGGSLRLSCAASGGTFPYNAMGWYRQAPGKEREFVAAISYTGGSTYYADSVKGRFTISRDNAKNTVYLQMNSLKPEDTAVYYCATEHTRTASGYWGQGTQVTVSS”: the “polyreactivity (PSR sort gate)” value was “low polyreactivity”. With “QVQLVESGGGLVQAGGSLRLSCAASGGTFPYYAMGWYRQAPGKERELVADISGTDGSTYYADSVKGRFTISRDNAKNTVYLQMNSLKPEDTAVYYCNAEPHWWYWDYDYWGQGTQVTVSS” the entry was “high polyreactivity”; with “QVQLVESGGGLVQAGGSLRLSCAASGGTFQDYGMGWYRQAPGTERELVAAITWSGGSTYYADSVKGRFTISRDNAKNTVYLQMNSLKPEDTAVYYCAAVYADVYLYLTAYDYWGQGTQVTVSS”, “low polyreactivity”; with “QVQLVESGGGLVQAGGSLRLSCAASGGTFRAYVMGWYRQAPGKERELVAAISRRGGSTYYADSVKGRFTISRDNAKNTVYLQMNSLKPEDTAVYYCNAPRLLLSYTPGLDRWPYGVYWGQGTQVTVSS”, “high polyreactivity”. The result for “QVQLVESGGGLVQAGGSLRLSCAASGGTFRGYAMGWYRQAPGKERELVAAISRGTSTNYADSVKGRFTISRDNAKNTVYLHLNSLKPEDTAVYYCNAAKRGWYYDYYYWGQGTQVTVSS” reads “high polyreactivity”. With “QVQLVESGGGLVQAGGSLRLSCAASGGTFRGYAMGWYRQAPGKERELVAAITYSGGRTYYADSVKGRFTISRDNAKNTVYLQMNSLKPEDTAVYYCNAQSSGRLSYRYDYWGQGTQVTVSS”, the “polyreactivity (PSR sort gate)” value is “high polyreactivity”. For “QVQLVESGGGLVQAGGSLRLSCAASGGTFRNYAMGWYRQAPGKERELVAGITSGSRTNYADSVKGRFTISRDNAKNTVYLQMNSLKPEDTAVYYCNARGNYVGRPYPVKHAYRSYYWGQGTQVTVSS”, the “polyreactivity (PSR sort gate)” value was “high polyreactivity”. In the case of “QVQLVESGGGLVQAGGSLRLSCAASGGTFRRYAMGWYRQAPGKEREFVAAITISGGNTYYADSVKGRFTISRDNAKNTVYLQMNSLKPEDTAVYYCAKDHIRKQPEGRRMDYWGQGTQVTVSS”, the “polyreactivity (PSR sort gate)” value is on record as “low polyreactivity”. As for “QVQLVESGGGLVQAGGSLRLSCAASGGTFRRYAMGWYRQAPGKERELVAAISWTGGSTYYADSVKGRFTISRDNAKNTVYLQMNSLKPEDTAVYYCAAVGSSSSKGGYWGQGTQVTVSS”, the “polyreactivity (PSR sort gate)” value is “high polyreactivity”. With “QVQLVESGGGLVQAGGSLRLSCAASGGTFRSYTMGWYRQAPGKERELVAAISWGGSTYYADSVKGRFTISRDNAKNTVYLQMNSLKPEDTAVYYCAADYWSFYRKRDYWGQGTQVTVSS” the entry was “low polyreactivity”.

For the sequence “QVQLVESGGGLVQAGGSLRLSCAASGGTFRVYAMGWYIQAPGKERELVASISWTVGGTYADSVKGRFTISRDNAKNTVYLQMNSLKPEDTAVYYCAAGGEWVNPYFPSSLDYWGQGTQVTVSS”, the “polyreactivity (PSR sort gate)” value is listed as “low polyreactivity”. For the sequence “QVQLVESGGGLVQAGGSLRLSCAASGGTFRVYAMGWYRQAPGKERELVAAITGRGGSTYYADSVKGRFTISRDNAKNTVYLQMNSLKPEDTAVYYCAKDPVTTYYKYDYWGQGTQVTVSS”, the “polyreactivity (PSR sort gate)” value is “low polyreactivity”. Regarding “QVQLVESGGGLVQAGGSLRLSCAASGGTFRVYAMGWYRQAPGKERELVAAITGRGGSTYYADSVKGRFTISRDNAKNTVYLQMNSLKPEDTAVYYCNKESELVEYDYWGQGTQVTVSS”, the “polyreactivity (PSR sort gate)” value was “low polyreactivity”. With “QVQLVESGGGLVQAGGSLRLSCAASGGTFRVYTMGWYRQAPGKERELVAAIILRGGGTYYADSVKGRFTISRDNAKNPVYLQMNSLNPEDTAVYYCNARSGNRYGPRYDYWGQGTQVTVSS” the entry was “high polyreactivity”; with “QVQLVESGGGLVQAGGSLRLSCAASGGTFSKNAMGWSRQAPGKERELVADIRSGGSTYYADSVKGRFTISRDNAKNTVYLQMNSLKPEDTAVYYCNADGDVNEYDYWGQGTQVTVSS”, “low polyreactivity”; with “QVQLVESGGGLVQAGGSLRLSCAASGGTFSSNAMGWYRQAPGKERELVAAIRSTGRTYYADSVKGRFTISRDNAKNTVYLQMNSLKPEDTAVYYCAADLGRTPTGKIGFDYWGQGTQVTVSS”, “high polyreactivity”.

Regarding “QVQLVESGGGLVQAGGSLRLSCAASGGTFSSYDMGWYRQAPGKERELVAAISWSGSSTDYADSVKGRFTISRDNAKNTVYLQMNSLKPEDTAVYYCNTDYWEITYSGVIWPEYDYWGQGTQVTVSS”, the “polyreactivity (PSR sort gate)” value was “low polyreactivity”. In the case of “QVQLVESGGGLVQAGGSLRLSCAASGGTFSYYAMGWYRQAPGKERELVAAISGNGDTTYYADSVKGRFTSSRDNAKNTVYLQMNSLKPEYTAVYYCNVYVSAGEEVEYWGQGTQVTVSS”, the “polyreactivity (PSR sort gate)” value was “low polyreactivity”. With “QVQLVESGGGLVQAGGSLRLSCAASGGTFSYYTMGWYRPAPGKERELVAAISSGGSTNYADSVKGRFTISRDNAKNTVYLQMNSLKPEDTAVYYCAVRSGRRNYDRPAFGYWGQGTQVTVSS” the entry was “high polyreactivity”; with “QVQLVESGGGLVQAGGSLRLSCAASGGTFTDYAMGWYRQAPGKERELVAAISSVGSTNYADSVKGRFTISRDNAKNTVYLQMNSLKPEDTAVYYCAVDYGRAVQGDSITYDFNYWGQGTQVTVSS”, “low polyreactivity”; with “QVQLVESGGGLVQAGGSLRLSCAASGGTFTNYAMGWYRQAPGKERELVAAITDSGATTYYADSVKGRFTISRDNAKNTVYLQMNSLKPEDTAVYYCNAALDLYTDFDYWGQGTQVTVSS”, “low polyreactivity”. With “QVQLVESGGGLVQAGGSLRLSCAASGGTFVFYAMGWYRQAPGKERELVAAISSAGRTYYADSVKGRFTISRDNAKNTVYLQMNSLKPEDTAVYYCAAVSSQYDGRYYYWGQGTQVTVSS” the entry was “high polyreactivity”; with “QVQLVESGGGLVQAGGSLRLSCAASGGTFVGYAMGWYRQAPGKERELVASITRRGGNTYYADSVKGRFTISRDNAKNTVYLQMNSLKPEDTAVYYCDRRYYYQYRYDYWGQGTQVTVSS”, “high polyreactivity”. The result for “QVQLVESGGGLVQAGGSLRLSCAASGGTFVRYAMGWYRQAPGKERELVAAISRSGGSTYYADSVKGRFTISRDNAKNTVYLQMNSLKPEDTAVFYCNKDRQRYGEDYWGQGTQVTVSS” reads “high polyreactivity”. For the sequence “QVQLVESGGGLVQAGGSLRLSCAASGGTFVYALGWYRQAPGKERELVAAISARTTGTYYADSVKGRFTISRDNAKNTVYLQMNSLKPEDTAVYYCAAKSKLSRDLYSWGQGTQVTVSS”, the “polyreactivity (PSR sort gate)” value was “low polyreactivity”. With “QVQLVESGGGLVQAGGSLRLSCAASGGTFWAYTRGWYRQAPGKERELVATISFGTGNTYYADSVKGRFTISRDNAKNTVYLQMNSLKPEDTAVYYCAAQWPELTRSYVTVEVDYWGQGTQVTVSS”, the “polyreactivity (PSR sort gate)” value is given as “low polyreactivity”. The result for “QVQLVESGGGLVQAGGSLRLSCAASGGTFWRNDMGWYRQAPGKERELVAAISYSGGTTYYADSVKGRFTISRDNAKNTVDLQMNSLKPEDTAVDYCATGGYSTRQSTFDYWGQGTQVTVSS” reads “low polyreactivity”. With “QVQLVESGGGLVQAGGSLRLSCAASGGTFYANAMGWYREAPGKERELVATITSSSGSTSYADSVKGRFTISRDNAKNTVYLQMNSLKPEDTAVYYCAKDSHAQGPYRYKHYHHTGDYWGQGTQVTVSS” the entry was “low polyreactivity”; with “QVQLVESGGGLVQAGGSLRLSCAASGGTFYAYAMGWYRQAPGKERELVAAITSGGRTYYADSVKGRFTISRDNAKNTVYLQMNSLKPEDTAVYYCAAKYFRGVKRDYWGQGTQVTVSS”, “high polyreactivity”; with “QVQLVESGGGLVQAGGSLRLSCAASGGTFYEYVMGWDRQAPGKERELVAAISWGDGSTYYADSVKGRFTISRDNAKNTVYLQMNSLKPEDTAVYYCAADHTVFTYEYWGQGTQVTVSS”, “high polyreactivity”. Consider “QVQLVESGGGLVQAGGSLRLSCAASGGTFYPYAMGWYRPAPGKERELVAAISASDDNTYYADSVKGRFTISRDNAKNTVYLQMNSLKPEDTAVYYCAKRSYFYPYYYWGQGTQVTVSS”, for which the “polyreactivity (PSR sort gate)” value is “high polyreactivity”. With “QVQLVESGGGLVQAGGSLRLSCAASGGTFYRYAMGWYRQAPGKERELVAVISKRGGTTYYADSVKGRFTISRDNAKNTVYLQMNSLKPVDTAVYYCAVRAPQSYGYDYWGQGTQVTVSS” the entry was “high polyreactivity”. For “QVQLVESGGGLVQAGGSLRLSCAASGGTFYSYAMGWYRQAPGTERELVAAISRRGGSTYYADSVKGRFTISLDNAKNTVYLQMNSLKPEDTAVYYCNTYIYQVRDDYWGQGTQVTVSS”, the “polyreactivity (PSR sort gate)” value is on record as “high polyreactivity”.

Consider “QVQLVESGGGLVQAGGSLRLSCAASGGTFYYNAMGWYRQAPGKERELVAAITDSGGRTYYADSVKGRFTISRDNAKNTVYLQMNSLKPEDTAVYYCAALARRQSRLYDYWGQGTQVTVSS”, for which the “polyreactivity (PSR sort gate)” value is “high polyreactivity”.
